Data published in paper PMC8373667.

Target: JJS-A6/A11 VHH heterodimer, thioredoxin-fused (alpaca (Vicugna pacos))
Assay: far-Western, overlay or dot blot

B1: recombinant Cp-P34 (natural protein)
chain: MSGVSRRAVITDPNGVYEGDVNEKGLKHGNGVYKVNTGDVYEGEYSNGLKNGYGVYTWANGDKFEGYYKDDIKWGHGIYRWSNGEVFEGEYVRGVKCGHGIYTWPNGDRFEGEYKDGVKEGFGVYKLATGRIYEGQYSRDMRNGQGTSRYTDGSVYTGEWFDGKEHGHGLLKFSDSSSYEGDFQNGAPNGQGKYTYSNGNYYVGGFKNGLTDGPGSLTFAEDNRVLKANWKDGQVDGDAAIIYPDGGKYTGEVVNGIRQGKGIMTESNGDIFDGEFFRDFRHGEGILTVNGKQKRVKYNMGKKVGLCSC
  percent of VHH binding to the native target blocked by the recombinant protein: 95.2%
